The results in this text go back to patent US20230340145A1, “Methods of Treating High Risk Multiple Myeloma” (Janssen Biotech, Inc., priority 2017, published 2023).

Data set [1] relates to patients with relapsed or refractory multiple myeloma. Description: CASTOR (NCT02136134) phase 3 trial, safety (adverse events). Type of data set: in vivo, human. From the text:
The purpose of this study is to assess the effects of administration of daratumumab when combined with VELCADE® (bortezomib) and dexamethasone compared with VELCADE® (bortezomib) and dexamethasone alone, for participants with relapsed or refractory multiple myeloma. The study was a multicenter, randomized open-label active-controlled phase 3 trial. A prespecified interim analysis has been described in Palumpo et al., NEJM375:754-66, 2016. The clinical trial number for this study is NCT02136134. Daratumumab was administered as an IV infusion at a dose of 16 mg/kg once per week (days 1, 8, and 15) for cycles 1-3, once every 3 weeks (on Day 1) during cycles 4-8, and once every 4 weeks thereafter. […] Dexamethasone was administered orally at 20 mg on Days 1, 2, 4, 5, 8, 9, 11, and 12, for a total dose of 160 mg per cycle. Safety assessments included the evaluation of adverse events, clinical laboratory testing, vital signs, and electrocardiography. The adverse events were graded according to the National Cancer Institute Common Terminology Criteria for Adverse Events, version 4.03.

The test system is the same in data set [2]. Nature of the data set: POLLUX (NCT02076009) phase 3 trial, safety (adverse events). Format: in vivo, human. From the text:
The purpose of this study was to assess the effects of administration of daratumumab when combined with lenalinomide and dexamethasone compared with lenalinomide and dexamethasone alone, for participants with relapsed or refractory multiple myeloma. The study was a multicenter, randomized open-label active-controlled phase 3 trial. A prespecified interim analysis has been described in Dimopoulos et al., NEJM375: 1319-31, 2016. The clinical trial number for this study is NCT02076009. […] For the DRd, the dose of dexamethasone was split: dexamethasone was administered at a dose of 20 mg before infusion as prophylaxis for infusion-related reactions and 20 mg was administered the next day.

In the case of daratumumab, the “Patients with infusion-related reactions whose events occurred during the first infusion” value in data set [1] (% of patients with infusion-related reactions) turned out to be 98.2%. The “Infusion-related reactions of any grade” value in data set [1] (associated with daratumumab, DVd arm) is on record as 45.3%. For the same substance, in data set [1] (in vivo), the “Grade 4 infusion-related events” value was “no grade 4 events”, the “Infusion-related reaction: bronchospasm” value was 9.1%, the “Infusion-related reaction: cough” value was determined as 7.0% and the “Infusion-related reaction: dyspnea” value is 10.7%. The “Patients who discontinued treatment because of infusion-related reactions” value in data set [1] (in vivo) is “Two”. Besides, the “Infusion-related reactions occurring during the first infusion” value in data set [2] (% of the reactions) turned out to be 92%. Moreover, in data set [2] (DRd arm), the “Incidence of daratumumab infusion-related reactions of any grade” value came to 47.7%. In addition, in data set [2] (in vivo), the “Infusion-related event of grade 4 or 5” value is “no patient”, the “Infusion-related reaction: cough” value worked out at 8.5%, the “Infusion-related reaction: dyspnea” value was found to be 8.5% and the “Infusion-related reaction: vomiting” value was 5.7%. The “Patients who discontinued daratumumab because of a grade 3 infusion-related event” value in data set [2] (in vivo) is recorded as “One”.
